± gives the standard deviation of the averaged measurements.
B1: library; a variant is named by its letters at N, in order (parent)
chain: GCUGUCACCGGUGUAUUACCCUAGUGGUCGACCGGUCUGAUGAGUCUNNNNNNAGACGAAACAGC

Columns and labels:
[1] = variants of: B1; assay: normalized RNA/DNA level with ligand (relative to sTRSVctl = 100) (log10 (% of sTRSVctl)); ligand: hypoxanthine (xanthine aptamer); higher = less ribozyme self-cleavage, higher mRNA level; conditions: ligand concentration (+) RNA-Seq: 5 mM, HEK293T, reporter: mCherry (pCS4076), ligand present: yes
In short: (§1)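 Ribozyme switch library plasmids with mCherry reporters (eGFP in certain ligand experiments) went into HEK293T cells at 4 µg per 6-well well. Where ligand was used, it was applied 1 h before transfection, and total RNA was extracted with EDTA 72 h later for reverse transcription, amplification, barcoding and sequencing. RNA level is the RNA-to-DNA read ratio normalized to a spiked-in non-cleaving sequence or to the leading sequences, then scaled and log-transformed. Scaling was ×100 with log10, the leading set comprised 25 sequences, and the cutoff was ≥100 DNA reads.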

[2] = variants of: B1; assay: normalized RNA/DNA level without ligand (relative to sTRSVctl = 100) (log10 (% of sTRSVctl)); ligand: hypoxanthine (xanthine aptamer); higher = less ribozyme self-cleavage, higher mRNA level; conditions: HEK293T, reporter: mCherry (pCS4076), ligand present: no
In short: as §1

Row | Variant | normalized RNA/DNA level with ligand (log10) [1] | normalized RNA/DNA level without ligand (log10) [2]
1 | UCUCAA | 1.92 ± 0.055 | 1.679 ± 0.0047
2 | UCUCAC | 2 ± 0.055 | 1.77 ± 0.047
3 | UCUCAU | 1.975 ± 0.012 | 1.887 ± 0.01
4 | CCUCAU | 1.97 ± 0.078 | 1.87 ± 0.02
5 | CCUCAC | 1.99 ± 0.027 | 2.07 ± 0.14
6 | CCUCAA | 1.929 ± 0.0046 | 1.84 ± 0.025
7 | ACUCGU | 1.95 ± 0.033 | 1.89 ± 0.025
8 | ACUCGC | 1.99 ± 0.041 | 1.93 ± 0.032
9 | CCGCAU | 1.96 ± 0.048 | 1.786 ± 0.0041
10 | CCGCAA | 1.95 ± 0.04 | 1.78 ± 0.046
11 | CCGCAC | 1.964 ± 0.013 | 1.754 ± 0.0073
12 | UCGGCU | 1.913 ± 0.014 | 1.8 ± 0.063
13 | UCGGCA | 1.99 ± 0.056 | 1.7 ± 0.098
14 | UCGGCC | 2.04 ± 0.081 | 1.951 ± 0.006
15 | ACGCCA | 1.95 ± 0.045 | 1.81 ± 0.019
16 | ACGCCC | 1.94 ± 0.026 | 1.875 ± 0.0043
17 | ACGCCU | 1.945 ± 0.008 | 1.63 ± 0.068
18 | ACGCCG | 1.873 ± 0.011 | 1.4 ± 0.032
19 | GCGAUA | 1.88 ± 0.083 | 1.594 ± 0.0079
20 | GCUAUA | 1.93 ± 0.03 | 1.89 ± 0.034
21 | GCUAUC | 1.966 ± 0.016 | 1.84 ± 0.058
22 | CCGUCU | 1.97 ± 0.036 | 1.83 ± 0.063
23 | CCGUCG | 1.89 ± 0.061 | 1.689 ± 0.011

Row | Variant | normalized RNA/DNA level with ligand (log10) [1] | normalized RNA/DNA level without ligand (log10) [2]
24 | CCGUCA | 1.909 ± 0.008 | 1.855 ± 0.0032
25 | CCGUCC | 1.98 ± 0.067 | 1.91 ± 0.057
26 | ACGCUC | 2.02 ± 0.048 | 1.908 ± 0.0022
27 | ACGCUU | 1.907 ± 0.016 | 1.5 ± 0.022
28 | ACGCUA | 1.948 ± 0.0038 | 1.69 ± 0.063
29 | CCUAAU | 1.94 ± 0.12 | 1.86 ± 0.1
30 | CCUAAG | 1.91 ± 0.05 | 1.66 ± 0.013
31 | CCUAAC | 1.93 ± 0.042 | 1.825 ± 0.0078
32 | UCUCUC | 2.025 ± 0.016 | 1.94 ± 0.09
33 | UCUCUU | 1.94 ± 0.043 | 1.814 ± 0.017
34 | GCGUAA | 1.83 ± 0.035 | 1.49 ± 0.054
35 | GCGCAU | 1.89 ± 0.026 | 1.55 ± 0.044
36 | GCGCAA | 1.873 ± 0.014 | 1.52 ± 0.023
37 | GCUCUU | 1.97 ± 0.052 | 1.91 ± 0.037
38 | GCUCUA | 1.941 ± 0.0064 | 1.79 ± 0.035
39 | GCUCUC | 1.98 ± 0.021 | 1.89 ± 0.079
40 | GCGUUC | 1.93 ± 0.059 | 1.58 ± 0.11
41 | GCGUUU | 1.965 ± 0.002 | 1.74 ± 0.11
42 | ACGUCG | 1.88 ± 0.041 | 1.41 ± 0.11
43 | ACGUCA | 1.94 ± 0.038 | 1.64 ± 0.032
44 | ACGUCU | 1.95 ± 0.042 | 1.65 ± 0.066
45 | ACGUCC | 1.957 ± 0.0037 | 1.847 ± 0.015
46 | GCGCCU | 2 ± 0.055 | 1.78 ± 0.052

Row | Variant | normalized RNA/DNA level with ligand (log10) [1] | normalized RNA/DNA level without ligand (log10) [2]
47 | GCGCCG | 1.91 ± 0.03 | 1.44 ± 0.017
48 | GCGCCA | 1.97 ± 0.025 | 1.711 ± 0.01
49 | CCGCUC | 2.005 ± 0.0034 | 1.963 ± 0.019
50 | CCGCUU | 1.96 ± 0.051 | 1.887 ± 0.0021
51 | GCGUCC | 1.93 ± 0.029 | 1.59 ± 0.039
52 | GCGUCG | 1.89 ± 0.037 | 1.53 ± 0.041
53 | GCGUCA | 1.96 ± 0.023 | 1.68 ± 0.069
54 | GCGUCU | 1.98 ± 0.085 | 1.772 ± 0.0055
55 | CCGUGC | 1.9 ± 0.057 | 1.54 ± 0.08
56 | CCUCCU | 1.95 ± 0.074 | 1.96 ± 0.026
57 | CCUCCA | 1.94 ± 0.026 | 1.95 ± 0.067
58 | ACGCAC | 1.89 ± 0.022 | 1.7 ± 0.041
59 | ACUCUC | 2.06 ± 0.025 | 2.014 ± 0.005
60 | UCGGUU | 1.938 ± 0.006 | 1.61 ± 0.04
61 | UCGGUG | 1.9763 ± 0.0017 | 1.67 ± 0.028
62 | UCGGUC | 2.034 ± 0.0059 | 1.969 ± 0.012
63 | CCUGCA | 2.011 ± 0.0089 | 1.9 ± 0.041
64 | UCGACU | 1.93 ± 0.056 | 1.72 ± 0.035
65 | UCGACA | 1.93 ± 0.023 | 1.72 ± 0.063
66 | UCGACC | 1.976 ± 0.015 | 1.955 ± 0.011
67 | UCGACG | 1.94 ± 0.021 | 1.704 ± 0.007
68 | GCGCGC | 1.93 ± 0.082 | 1.68 ± 0.026
69 | GCGCGU | 1.92 ± 0.064 | 1.58 ± 0.12

Row | Variant | normalized RNA/DNA level with ligand (log10) [1] | normalized RNA/DNA level without ligand (log10) [2]
70 | GCGCGA | 1.844 ± 0.0031 | 1.51 ± 0.025
71 | UCGGGG | 1.98 ± 0.05 | 1.69 ± 0.035
72 | UCGGGC | 2.021 ± 0.017 | 1.99 ± 0.0053
73 | UCGGGU | 1.81 ± 0.075 | 1.55 ± 0.13
74 | ACUAUC | 1.98 ± 0.03 | 1.95 ± 0.046
75 | ACUAUU | 1.928 ± 0.012 | 1.82 ± 0.03
76 | ACUAUG | 1.89 ± 0.021 | 1.48 ± 0.015
77 | GCGCUA | 1.88 ± 0.067 | 1.68 ± 0.031
78 | GCGCUC | 1.919 ± 0.015 | 1.64 ± 0.052
79 | GCGCUU | 1.96 ± 0.065 | 1.76 ± 0.046
80 | GCGCUG | 1.86 ± 0.028 | 1.36 ± 0.03
81 | GCGGGC | 1.86 ± 0.046 | 1.58 ± 0.084
82 | UCUCCU | 1.99 ± 0.059 | 1.87 ± 0.028
83 | UCUCCA | 1.93 ± 0.069 | 1.77 ± 0.019
84 | UCUCCG | 1.85 ± 0.036 | 1.43 ± 0.1
85 | UCUCCC | 1.98 ± 0.14 | 1.77 ± 0.022
86 | CCGAGU | 1.89 ± 0.03 | 1.57 ± 0.029
87 | CCGAGC | 1.899 ± 0.0048 | 1.44 ± 0.037
88 | CCUAUC | 2.03 ± 0.028 | 2.04 ± 0.03
89 | CCUAUU | 1.95 ± 0.063 | 1.9 ± 0.039
90 | CCUAUG | 1.92 ± 0.13 | 1.86 ± 0.083
91 | GCUCGU | 1.96 ± 0.042 | 1.83 ± 0.048
92 | UCUAAC | 1.9378 ± 0.00086 | 1.85 ± 0.013

Row | Variant | normalized RNA/DNA level with ligand (log10) [1] | normalized RNA/DNA level without ligand (log10) [2]
93 | CCUCGC | 1.92 ± 0.054 | 1.92 ± 0.029
94 | CCUCGU | 1.98 ± 0.026 | 1.87 ± 0.031
95 | UCGUUU | 1.96 ± 0.042 | 1.8 ± 0.01
96 | UCGUUG | 1.98 ± 0.095 | 1.785 ± 0.01
97 | UCGUUC | 2 ± 0.031 | 1.95 ± 0.086
98 | UCGUUA | 1.961 ± 0.0027 | 1.736 ± 0.0095
99 | CCGUUC | 1.96 ± 0.079 | 1.82 ± 0.099
100 | CCGUUG | 1.88 ± 0.045 | 1.589 ± 0.0096
101 | CCGUUU | 1.95 ± 0.028 | 1.86 ± 0.069
102 | CCGUUA | 1.94 ± 0.021 | 1.75 ± 0.094
103 | UCUCGG | 1.92 ± 0.032 | 1.7302 ± 0.00058
104 | UCUCGA | 1.93 ± 0.057 | 1.832 ± 0.013
105 | UCUCGC | 1.99 ± 0.022 | 1.757 ± 0.0053
106 | UCUCGU | 1.96 ± 0.053 | 1.83 ± 0.045
107 | UCGGAA | 1.84 ± 0.043 | 1.31 ± 0.017
108 | UCGGAU | 1.86 ± 0.036 | 1.3978 ± 0.00098
109 | UCGGAC | 1.981 ± 0.002 | 1.877 ± 0.012
110 | GCUAGC | 1.89 ± 0.1 | 1.79 ± 0.079
111 | GCUAGU | 1.92 ± 0.11 | 1.722 ± 0.0072
112 | GCUAGG | 1.83 ± 0.039 | 1.48 ± 0.02
113 | GCUAGA | 1.92 ± 0.031 | 1.71 ± 0.029
114 | ACUCCU | 1.965 ± 0.011 | 1.905 ± 0.018
115 | ACUCCA | 2.014 ± 0.018 | 1.91 ± 0.023

Reference: the supplement of paper PMC6757056
